Results published in patent US20220177587A1, “METHODS AND USES OF VARIANT CD80 FUSION PROTEINS AND RELATED CONSTRUCTS” (Alpine Immune Sciences, Inc., priority 2018, published 2022).
Substitutions are numbered along the chain they refer to. Numbers in names are those of the source.

Legend:
CD28 [1] = biological target: T1, CD28 (Homo sapiens, UniProt P10747); assay: Jurkat/IL2 + CHO/OKT3 +/- PD-L1 reporter assay: PD-L1-dependent CD28 costimulation; format: cell-based; design: host or cells: Jurkat cells expressing an IL-2-luciferase reporter; conditions: for PD-L1-Dependent CD28 Costimulation, +PD-L1, 0.6 nM / PD-L1-Dependent CD28 Costimulation, +PD-L1, 50 nM: CHO/OKT3/PD-L1 aAPC; for PD-L1-Dependent CD28 Costimulation, +PD-L1, 0.6 nM / PD-L1-Dependent CD28 Costimulation, +PD-L1, 50 nM / PD-L1-Dependent CD28 Costimulation, No PD-L1, 50 nM / PD-L1-Dependent CD28 Costimulation, No PD-L1, […]: luciferase signal; for PD-L1-Dependent CD28 Costimulation, No PD-L1, 50 nM / PD-L1-Dependent CD28 Costimulation, No PD-L1, […]: CHO/OKT3 aAPC
How it was run: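 Readout is relative luminescence from lysed cocultures: test protein given 15 min at room temperature to Jurkat cells before adding CHO artificial APCs displaying OKT3 alone or OKT3 plus PD-L1, then 5 h at 37 °C, 5% CO2.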

CD28 [2] = biological target: T1, CD28; assay: CD28 costimulation via Fc receptor or PD-L1 dependent cross-linking (Jurkat/IL2 + K562/OKT3 +/- PD-L1); format: cell-based; design: host or cells: Jurkat cells expressing an IL-2-luciferase reporter; conditions: K562/0KT3 aAPC, luciferase signal
Description: In a further experiment, CD28 costimulation was assessed for variant CD80-IgV-Fc fusion proteins, where the Fc was an IgG1 Fc (e.g. SEQ ID NO:1517) capable of mediating effector activity via binding to Fc receptors (FcR). The experiment was carried out as described in part A above, except CD32-expressing K562 cells stably transduced with OKT3 (K562/OKT3) or OKT3 and PD-L1 (K562/OKT3/PD-L1) were used instead of the CHO/OKT3 and CHO/OKT3/PD-L1 cells, and the results are depicted in Table E9.

CD28 [3] = biological target: T1, CD28; assay: Jurkat/IL2 reporter assay: blockade of CD28 costimulation (plate-bound anti-CD3/CD86-Fc); format: cell-based; design: host or cells: Jurkat cells expressing an IL-2-luciferase reporter; conditions: Table E5; protein diluted to 40 nM before mixing with cells; 5 hours
How it was run: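 Readout is Bio-Glo luminescence after a 5 h, 37 °C stimulation of IL-2-luciferase Jurkat reporter cells on wells precoated (overnight, 4 °C) with anti-CD3 antibody and CD86-Fc. Cells were first mixed with CD80-Fc test proteins for 15 min at room temperature.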

huPD-L1 = huPD-L1 (Homo sapiens, UniProt Q9NZQ7); assay: Flow binding to CHO cells stably expressing PD-L1; design: huCTLA4 and huPD-L1, full-length mammalian surface expression constructs were generated; expressed in transfected cells; host or cells: CHO cells, lentiviral transduction, sorted to >98% purity; conditions: for PD-L1 MFI at 33.3 nM: CHO cells stably expressing PD-L1
How it was run: (§1)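 Cells were first blocked in PBS with 1% BSA and 0.1% sodium azide. Primary staining with fusion protein ran 45 min on ice, and secondary staining with PE anti-human Fc at 1:150 ran 30 min on ice.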

huCTLA4 = huCTLA4 (Homo sapiens, UniProt P16410); assay: Flow binding to CHO cells stably expressing CTLA4; design: huCTLA4 and huPD-L1, full-length mammalian surface expression constructs were generated; expressed in transfected cells; host or cells: CHO cells, lentiviral transduction, sorted to >98% purity; conditions: for CTLA4 MFI at 33.3 nM: CHO cells stably expressing CTLA4
How it was run: as §1

CD28 [4] = biological target: T1, CD28; assay: Flow binding to Jurkat/IL2 reporter cells (CD28); design: host or cells: Jurkat cells expressing an IL-2-luciferase reporter
How it was run: as §1

CD28 [5] = biological target: T1, CD28; assay: Jurkat/IL2 + K562/OKT3/PD-L1 reporter assay; format: cell-based; design: host or cells: Jurkat cells expressing an IL-2-luciferase reporter; conditions: Table E8; K562/OKT3/PD-L1 aAPC; 50 nM
CD28 [6] = biological target: T1, CD28; assay: Jurkat/IL2 + K562/OKT3 (no PD-L1) reporter assay of CD80 ECD-Fc (effector); format: cell-based; design: host or cells: Jurkat cells expressing an IL-2-luciferase reporter; conditions: aAPC without PD-L1
Description: The bioactivity of the generated molecules also was assessed using a Jurkat report assay as described in Examples 9 to assess CD28 costimulation of the molecules.

[7] = Table E4, MFI ratio to WT CD80 ECD-Fc (R&D) at 33.3 nM

Sequence of huCTLA4 (P16410 36-223): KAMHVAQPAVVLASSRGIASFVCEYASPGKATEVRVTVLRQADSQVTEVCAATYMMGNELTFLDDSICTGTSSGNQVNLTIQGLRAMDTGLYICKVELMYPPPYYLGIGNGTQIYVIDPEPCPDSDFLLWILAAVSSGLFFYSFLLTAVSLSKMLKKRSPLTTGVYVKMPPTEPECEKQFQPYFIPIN
Sequence of huPD-L1 (Q9NZQ7 19-290): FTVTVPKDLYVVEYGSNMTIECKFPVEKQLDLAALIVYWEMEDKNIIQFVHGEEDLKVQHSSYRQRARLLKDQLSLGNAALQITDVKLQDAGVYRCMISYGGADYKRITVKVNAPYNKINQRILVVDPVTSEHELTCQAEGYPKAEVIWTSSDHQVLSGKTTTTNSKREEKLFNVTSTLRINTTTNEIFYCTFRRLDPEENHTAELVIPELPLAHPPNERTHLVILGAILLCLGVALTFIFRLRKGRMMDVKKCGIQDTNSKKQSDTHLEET

B1: A71D/L72V/E95K: variant CD80 IgV-Fc, IgV SEQ ID NO:192 (protein)
chain: VIHVTKEVKEVATLSCGHNVSVEELAQTRIYWQKEKKMVLTMMSGDMNIWPEYKNRTIFDITNNLSIVILDVRPSDEGTYECVVLKYEKDAFKRKHLAEVTLSVKAD
PD-L1-Dependent CD28 Costimulation, +PD-L1, 0.6 nM (CD28 [1]): 524
PD-L1-Dependent CD28 Costimulation, +PD-L1, 50 nM (CD28 [1]): 755
PD-L1-Dependent CD28 Costimulation, No PD-L1, 50 nM (CD28 [1]): 644
PD-L1-Dependent CD28 Costimulation, No PD-L1, […] (CD28 [1]): 466
CD28 costimulation, FcR Dependent Cross-Linking (No PD-L1), 0.6 nM (CD28 [2]): 1821
CD28 costimulation, FcR Dependent Cross-Linking (No PD-L1), 50 nM (CD28 [2]): 7109
Average Relative Luminescence Units (CD28 [3]): 2939 Relative Luminescence Units

B2: E23G/A26S/E35D/T62N/A71D/L72V/L85M: variant CD80 IgV-Fc, IgV SEQ ID NO:216 (protein)
chain: B1 chain with E23G, A26S, E35D, T62N, L85M, K95E
PD-L1-Dependent CD28 Costimulation, +PD-L1, 0.6 nM (CD28 [1]): 524
PD-L1-Dependent CD28 Costimulation, +PD-L1, 50 nM (CD28 [1]): 695
PD-L1-Dependent CD28 Costimulation, No PD-L1, 50 nM (CD28 [1]): 606
PD-L1-Dependent CD28 Costimulation, No PD-L1, […] (CD28 [1]): 566
CD28 costimulation, FcR Dependent Cross-Linking (No PD-L1), 0.6 nM (CD28 [2]): 2022
CD28 costimulation, FcR Dependent Cross-Linking (No PD-L1), 50 nM (CD28 [2]): 7855
Average Relative Luminescence Units (CD28 [3]): 2067 Relative Luminescence Units

B3: E35D/D46V/L85Q: variant CD80 IgV-Fc, IgV SEQ ID NO:203 (protein)
chain: B1 chain with E35D, D46V, D71A, V72L, L85Q, K95E
PD-L1-Dependent CD28 Costimulation, +PD-L1, 0.6 nM (CD28 [1]): 611
PD-L1-Dependent CD28 Costimulation, +PD-L1, 50 nM (CD28 [1]): 2224
PD-L1-Dependent CD28 Costimulation, No PD-L1, 50 nM (CD28 [1]): 720
PD-L1-Dependent CD28 Costimulation, No PD-L1, […] (CD28 [1]): 511
Relative Luciferase Units (RLU), CD80 Conc 5.0 nM (CD28 [1]; Table E21, Jurkat/IL2 + CHO/OKT3/PD-L1, CD80 Conc 5.0 nM): 410 RLU
CD28 costimulation, FcR Dependent Cross-Linking (No PD-L1), 0.6 nM (CD28 [2]): 1880
CD28 costimulation, FcR Dependent Cross-Linking (No PD-L1), 50 nM (CD28 [2]): 7015
PD-L1 MFI at 33.3 nM (huPD-L1; Table E19): 4039
Average Relative Luminescence Units (CD28 [3]): 3230 Relative Luminescence Units
CTLA4 MFI at 33.3 nM (huCTLA4; Table E19, 33.3 nM): 48005
CD28 MFI at 33.3 nM (CD28 [4]; Table E19, Jurkats (CD28)): 196

B4: E35D/D46E/M47V/N63D/L85Q (protein, UniProt P33681 35-288, looked up, variant E35D D46E M47V N63D L85Q)
T-lymphocyte activation …: VIHVTKEVKEVATLSCGHNVSVEELAQTRIYWQKDKKMVLTMMSGEVNIWPEYKNRTIFDITDNLSIVILALRPSDEGTYECVVQKYEKDAFKREHLAEVTLSVKADFPTPSISDFEIPTSNIRRIICSTSGGFPEPHLSWLENGEELNAINTTVSQDPETELYAVSSKLDFNMTTNHSFMCLIKYGHLRVNQTFNWNTTKQEHFPDNLLPSWAITLISVNGIFVICCLTYCFAPRCRERRRNERLRRESVRPV
PD-L1 MFI at 33.3 nM (huPD-L1; Table E4): 69780
PD-L1 Fold change to WT CD80 (huPD-L1; [7]): 5.88
Ratio of PDL1:CD28 (huPD-L1; Table E4, binding to PD-L1 compared to binding to CD28): 52
Fold Increase over WT CD80-IgV-Fe (CD28 [5]): 6.7
Relative Luciferase Units (RLU), CD80-Fe Cone 50 nM (CD28 [5]): 1381 RLU
CTLA4 MFI at 33.3 nM (huCTLA4; Table E4, 33.3 nM variant CD80 IgV-Fc): 274320
CTLA4 Fold change to WT CD80 (huCTLA4; [7]): 1.74
CD28 MFI at 33.3 nM (CD28 [4]; Table E4, Jurkat cells (CD28)): 1331
CD28 Fold change to WT CD80 (CD28 [4]; [7]): 0.07

B5: CD80 (A91G/I118V/T120S/T130A) ECD-Fc: variant full CD80 ECD fused to effector human IgG1 Fc (SEQ ID NO:1527) (protein)
chain: VIHVTKEVKEVATLSCGHNVSVEELAQTRIYWQKEKKMVLTMMSGDMNIWPEYKNRTIFDITNNLSIVILALRPSDEGTYECVVLKYEKDGFKREHLAEVTLSVKADFPTPSISDFEVPSSNIRRIICSASGGFPEPHLSWLENGEELNAINTTVSQDPETELYAVSSKLDFNMTTNHSFMCLIKYGHLRVNQTFNWNTTKQEHFPDN
CHO/PD-L1 MFI at 66.7 nM (huPD-L1; 66.7 nM): 107
Relative Luminescence at 98 pM (CD28 [6]; 98 pM): 1098 RLU
Relative Luminescence at 391 pM (CD28 [6]; 391 pM): 1119 RLU
Relative Luminescence at 1563 pM (CD28 [6]; 1563 pM): 1288 RLU
Relative Luminescence at 6250 pM (CD28 [6]; 6250 pM): 1761 RLU
Relative Luminescence at 25000 pM (CD28 [6]; 25000 pM): 2209 RLU
Relative Luminescence at 100000 pM (CD28 [6]; 100000 pM): 2750 RLU
CHO/CTLA4 MFI at 66.7 nM (huCTLA4; 66.7 nM): 24801
EC50 (huCTLA4; flow binding): 4.3 nM
Jurkat/CD28 MFI at 66.7 nM (CD28 [4]; 66.7 nM): 720
EC50 (CD28 [4]; flow binding, read-out: Jurkat/CD28 EC50): > 200 nM
